The target of the test is D76N-β2-microglobulin (UniProt P61769).
Chain of UniProt P61769 (P61769 other isoform, or with tags, fused parts or gaps D76N | D76N): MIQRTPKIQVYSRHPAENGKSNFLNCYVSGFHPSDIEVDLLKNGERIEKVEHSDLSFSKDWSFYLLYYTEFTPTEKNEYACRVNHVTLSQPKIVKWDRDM

As for “crosslinked dimers (XL-Ds) of D76N-β2m/S57C (from UniProt P61769 21-119) (complex)”, the ThT fluorescence kinetics of seeded fibril growth of 20 μM D76N-β2m with 3% or 10% (w/w) fibril seeds and 10% (w/w) XL-Ds: fold increase in T (half) stood at 1.6 fold.

(Values after article PMC9712992.)
